Measurements published in patent publication US20100273704A1.

These substances were tested against BCL-XL ΔC [GST: P08515] (assay: fluorescence polarization).

EC50	Substance
> 10000 nM	BAD SAHBA(S→D)
35.3 nM	BID SAHBA
333 nM	BAD SAHBA(L,D→A)
40.2 nM	BAD SAHBA
